Results taken from patent publication US20170369542A1 (Pieris, published 2017).
Positions count from the first letter of the chain named. Where no end group is shown, it is not given here.

T1: lipocalin mutein of SEQ ID NO: 14, linked to PEG40 (branched 40k PEG-maleimide on the free Cys at position 87)
T1 construct: hNGAL mutein with Ser 87 back-mutated to Cys and PEGylated there
T1 chain: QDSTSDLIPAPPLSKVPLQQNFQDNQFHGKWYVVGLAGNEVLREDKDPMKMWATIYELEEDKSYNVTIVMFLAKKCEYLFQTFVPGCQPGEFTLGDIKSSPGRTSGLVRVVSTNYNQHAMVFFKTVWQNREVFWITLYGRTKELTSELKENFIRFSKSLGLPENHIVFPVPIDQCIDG

T2: C-terminal biotinylated human Hepcidin-25 (human, not fully specified; biotinylated via a Lysine residue coupled to the C-terminus via a Mini-PEG linker)
T2 construct: Bought from Bachem AG; Captured on plates via Neutravidin; also called C-terminal biotinylated hepcidin; C-terminal biotinylated hHepcidin
T2 peptide: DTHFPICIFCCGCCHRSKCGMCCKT

T3: cynomolgus Hepcidin-25 (cynomolgus, UniProt A7XEI3 60-84, not fully specified)
T3 construct: mature
T3 peptide: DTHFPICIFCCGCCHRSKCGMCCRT

B1: synthetic non-modified human Hepcidin-25 (peptide)
peptide: DTHFPICIFCCGCCHRSKCGMCCKT
modifications: not fully specified (bridges); ends and bridges not checked
notes: also called hHepcidin-25; non-biotinylated human hepcidin
B2: lipocalin mutein of SEQ ID NO: 1 (designed binder)
chain: T1 chain with C87S
notes: also called Lcn2 mutein; hNGAL mutein
B3: pegylated mutein of SEQ ID NO: 8 (designed binder)
chain: T1 chain with E59K, F71P, K74E, D96G, S100G, T125V, I135V
modifications: branched 40k PEG-maleimide on Cys 87
B4: lipocalin mutein of SEQ ID NO: 8 (designed binder)
chain: T1 chain with E59K, F71P, K74E, C87S, D96G, S100G, T125V, I135V
notes: also called Lcn2 mutein
B5: pegylated mutein of SEQ ID NO: 1 (designed binder)
chain: T1 chain
modifications: branched 40k PEG-maleimide on Cys 87
B6: lipocalin mutein of SEQ ID NO: 13, linked to PEG40 (designed binder)
chain: T1 chain with E59K, F71P, K74E, D96G, S100G, T125V, I135V
modifications: branched 40k PEG-maleimide on the free Cys at position 87
notes: hNGAL mutein with Ser 87 back-mutated to Cys and PEGylated there

What was measured:
[1] = target: murine ferroportin (FPN) carboxy-terminally fused with green fluorescent protein (GFP) (murine), Q9JHI9; experiment: cell-based or functional assay
murine ferroportin (FPN) carboxy-terminally fused with green fluorescent protein (GFP) (murine), Q9JHI9, sequence (Q9JHI9 whole entry, the tested form may be a part): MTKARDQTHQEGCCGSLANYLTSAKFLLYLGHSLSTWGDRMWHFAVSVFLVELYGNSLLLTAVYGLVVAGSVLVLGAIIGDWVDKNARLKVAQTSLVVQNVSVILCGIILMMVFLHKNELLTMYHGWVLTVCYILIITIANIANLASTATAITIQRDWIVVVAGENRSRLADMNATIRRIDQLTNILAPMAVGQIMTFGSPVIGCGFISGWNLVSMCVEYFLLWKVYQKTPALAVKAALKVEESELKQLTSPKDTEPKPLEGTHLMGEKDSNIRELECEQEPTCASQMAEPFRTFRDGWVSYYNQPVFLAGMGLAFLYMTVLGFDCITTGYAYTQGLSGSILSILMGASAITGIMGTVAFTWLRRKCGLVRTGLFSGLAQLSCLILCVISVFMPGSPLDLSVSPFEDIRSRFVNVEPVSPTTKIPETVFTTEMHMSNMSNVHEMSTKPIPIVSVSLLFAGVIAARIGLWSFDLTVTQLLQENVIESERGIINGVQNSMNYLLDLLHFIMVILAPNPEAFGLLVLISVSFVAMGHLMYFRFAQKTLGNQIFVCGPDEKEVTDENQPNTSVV

[2] = target: T1, lipocalin mutein of SEQ ID NO: 14, …; experiment: competition ELISA, free human hepcidin against captured biotinylated hepcidin
[3] = target: B6; experiment: as above
[4] = target: T2, C-terminal biotinylated human …; experiment: direct ELISA, biotinylated hepcidin captured via Neutravidin, mutein titrated
Experimental: (§1) A “direct” ELISA was performed to verify the binding affinity and specificity of the selected Lcn2 muteins. Therefore, a constant concentration of 1 μg/ml C-terminal biotinylated hepcidin (Bachem AG, CH) was captured on the surface of a polystyrol plate (Greiner, GE) via Neutravidin (Thermo Scientific, 5 μg/ml). Two step dilution series of purified Lcn2 muteins were incubated with the captured hepcidin for 1 h at room temperature and detected either via the Strep-tag II using a rabbit anti-strep-tag II polyconal antibody (GenScript, USA) or by using a scaffold-specific polyclonal rabbit antibody. In both cases an anti rabbit IgG-HRP conjugate (Abcam, UK) was employed as secondary detection antibody.
(§2) The absorption ΔA at […] was measured in an ELISA reader (Tecan, GE) and the data were fitted with Graphpad Prism software (Statcom, USA).

cynomolgus Hepcidin-25 [5] = target: T3, cynomolgus Hepcidin-25; experiment: direct ELISA on cynomolgus hep-25, mutein titrated
Experimental: as §1, §2

[6] = target: B1; experiment: competition ELISA: non-biotinylated human hepcidin-25 titrated against a constant concentration of mutein; free mutein detected on plate-captured biotinylated human hepcidin
Experimental: The binding affinity of the Lcn2 muteins to non-modified hepcidin-25 in solution was evaluated in a competition ELISA approach. Therefore, a constant concentration of 1 μg/ml C-terminal biotinylated human hepcidin (Bachem AG, CH) was captured on the surface of a polystyrol plate (Greiner, GE) via Neutravidin (Thermo Scientific, 5 μg/ml, GE). In parallel a two step dilution series of non-biotinylated human hepcidin starting from 1 μM was incubated with a constant concentration of hepcidin-specific mutein for 1 h at room temperature in a non-protein binding 96 well polypropylene plate (Nunc, GE). The constant concentration of lipocalin muteins corresponds to the EC₅₀ of the respective muteins as determined in a direct ELISA as described above in this example. In the following the mixture of non-modified human hepcidin and lipocalin mutein was transferred onto the hepcidin-captured Neutravidin plate. The C-terminal biotinylated hepcidin was allowed to compete with the non-modified hepcidin for Anticalin binding for 20 min. at room temperature. During these 20 min, free lipcocalin mutein was bound to the captured hepcidin and detected via a rabbit anti-strep-tag II polyconal antibody (GenScript, USA). A goat anti-rabbit IgG-HRP conjugate (Abcam, UK) was employed as secondary detection antibody. Parallel to the competition assay, anticalin binding was determined on the same plate in a “direct” ELISA, in order to obtain a standard curve linking the RFU values to anticalin concentration. This curve was then used to standardize competition data to the level of anticalins bounds to the plate and fitted with Graphpad software. IC₅₀ values correspond to the half-maximum amount of lipocalin mutein bound to the plate.

[7] = target: B1; experiment: cell-based or functional assay
cynomolgus Hepcidin-25 [8] = target: T3, cynomolgus Hepcidin-25; experiment: SPR, Biacore T100, mutein amine-coupled to CM5 chip, hepcidin as analyte, 25 C
Experimental: (§3) Lipocalin muteins were immobilized to a CM5 sensor chip using standard amine chemistry: The surface of the chip was activated using EDC and NHS. Subsequently, 20 μg/mL lipocalin mutein solutions in 10 mM sodium acetate pH 4.5 (60 μg/mL in 10 mM sodium acetate pH 4.0 for pegylated lipocalin mutein) were applied at a flow rate of 5 μL/min until a surface density of 500-700 resonance units (RU) for non-modified lipocalin muteins and of approximately 1600 RU for pegylated lipocalin with the sequence of SEQ ID NO: 13 was achieved. Residual activated groups were saturated with ethanolamine. The reference channels were treated with EDC/NHS following ethanolamine (blank immobilization). All reagents and materials were purchased from GE Healthcare.
(§4) Serial dilutions of human and cynomolgus Hepcidin-25 in running buffer (HBS-EP+, GE Healthcare, BR-1006-68) were applied to the prepared surface. The following parameters were used for the binding assay: contact time 60 s, dissociation time 180-360 s, flow rate 30 μL/min. All measurements were performed on a Biacore T100 instrument (GE Healthcare) at 25° C.
(§5) Data were evaluated with Biacore T100 Evaluation software (V 2.0.1). Double referencing was used. The 1:1 Binding model (Langmuir) was used to fit the raw data.

[9] = target: B1; experiment: SPR (Biacore T100), mutein immobilized on CM5 chip, hepcidin-25 in solution, 1:1 model
Experimental: as §3, §4, §5

cynomolgus Hepcidin-25 [10] = target: T3, cynomolgus Hepcidin-25; experiment: as above
Experimental: as §3, §4, §5

[11] = target: T2, C-terminal biotinylated human …; experiment: direct ELISA, biotinylated hepcidin captured via Neutravidin
Experimental: as §1, §2

[12] = target: B1; experiment: SPR, Biacore T100, pegylated mutein amine-coupled to CM5 chip, hepcidin as analyte, 1:1 model, 25 C
Experimental: as §3, §4, §5

Binder	EC80 of hepcidin-mediated degradation of the Fpn-GFP fusion protein (GFP fluorescence by flow cytometry) [1] [nM]	factor by which pegylation reduced the binding affinity (against the non-pegylated mutein) [2] [fold]	factor by which pegylation reduced the binding affinity (against the non-pegylated mutein) [3] [fold]	Kd [4] [nM]	Kd (cynomolgus Hepcidin-25 [5]) [nM]	IC50 [6] [nM]	IC50 of neutralization of hepcidin-induced (40 nM) internalization and degradation of FPN-GFP in T-REx-293 cells, GFP fluorescence by flow cytometry [7] [nM]	fold higher affinity compared to the human target (cynomolgus Hepcidin-25 [8]) [fold]	Kd [9] [nM]	koff [9] [s⁻¹]	kon [9] [M⁻¹ s⁻¹]	Kd (cynomolgus Hepcidin-25 [10]) [nM]	koff (cynomolgus Hepcidin-25 [10]) [s⁻¹]	kon (cynomolgus Hepcidin-25 [10]) [M⁻¹ s⁻¹]	factor by which pegylation reduced the binding affinity (against the non-pegylated mutein) [11] [fold]	Kd [12] [nM]
B1	40	4	2	–	–	–	–	–	–	–	–	–	–	–	–	–
B2	–	–	–	0.26	0.43	0.34	66	~2	0.589	0.00116	1.97e+06	0.332	0.000934	2.84e+06	–	–
B3	–	–	–	–	–	–	–	–	–	–	–	–	–	–	5	–
B4	–	–	–	0.66	0.67	0.1	31	~2	0.123	0.000178	1.45e+06	0.066	0.000245	3.74e+06	–	–
B5	–	–	–	–	–	–	–	–	–	–	–	–	–	–	8	–
B6	–	–	–	3.49	–	0.24	34	~2	0.041	0.000123	2.98e+06	–	–	–	–	0.04
